Laboratory results as given in PMC13031064.

B1: CPS1 probe (dsDNA)
DNA 1: AATCATTTTTCATTTGACTGCCAAGGTAATCATTTTTCATTTGACTGCCAAGGT
DNA 2: ACCTTGGCAGTCAAATGAAAAATGATTACCTTGGCAGTCAAATGAAAAATGATT
B2: DXS2 probe (dsDNA)
DNA 1: TAAATCCTGACATTTGAATAGTATATTAAATCCTGACATTTGAATAGTATAT
DNA 2: ATATACTATTCAAATGTCAGGATTTAATATACTATTCAAATGTCAGGATTTA
B3: KSL1 probe (dsDNA)
DNA 1: TGCATCATCTCATTTGGAGTTTAAAATGCATCATCTCATTTGGAGTTTAAAA
DNA 2: TTTTAAACTCCAAATGAGATGATGCATTTTAAACTCCAAATGAGATGATGCA
B4: CYP76AH1 probe (dsDNA)
DNA 1: TATAATAGAACATTTGGGCGATGCTATATAATAGAACATTTGGGCGATGCTA
DNA 2: TAGCATCGCCCAAATGTTCTATTATATAGCATCGCCCAAATGTTCTATTATA

The binders below were run against bHLH130-His (SmbHLH130) (Salvia miltiorrhiza, UniProt A0A0H3Y8V8 1-394) (assay: EMSA).

Binding result, binds:
B1
B2
B3
B4
